B1: KNU -10 (96 bp) (dsDNA)
DNA 1: GAAAGAGGGTAAGAGAAACATAGAAACCTTCCATGTTTGGCAATTTCATCTTGGACTCTCTCTTGTCTTCTTTGTGCATCACAAGAACAACAAATA
DNA 2: TATTTGTTGTTCTTGTGATGCACAAAGAAGACAAGAGAGAGTCCAAGATGAAATTGCCAAACATGGAAGGTTTCTATGTTTCTCTTACCCTCTTTC
B2: KNU -5 (96 bp) (dsDNA)
DNA 1: AGAGGGTAAGAGAAACATAGAAACCTTCCATGTTTGGCAATTTCATCTTGGAACTTACTCTCTCTTGTCTTCTTTGTGCATCACAAGAACAACAAA
DNA 2: TTTGTTGTTCTTGTGATGCACAAAGAAGACAAGAGAGAGTAAGTTCCAAGATGAAATTGCCAAACATGGAAGGTTTCTATGTTTCTCTTACCCTCT
B3: KNU +5 (96 bp) (dsDNA)
DNA 1: AGAGAAACATAGAAACCTTCCATGTTTGGCAATTTCATCTTGGAAGTCAGCTTGATTCACTCTCTCTTGTCTTCTTTGTGCATCACAAGAACAACA
DNA 2: TGTTGTTCTTGTGATGCACAAAGAAGACAAGAGAGAGTGAATCAAGCTGACTTCCAAGATGAAATTGCCAAACATGGAAGGTTTCTATGTTTCTCT
B4: KNU +10 (96 bp) (dsDNA)
DNA 1: AAACATAGAAACCTTCCATGTTTGGCAATTTCATCTTGGAAGTCAGTAGCTCTTGATTCACTCTCTCTTGTCTTCTTTGTGCATCACAAGAACAAC
DNA 2: GTTGTTCTTGTGATGCACAAAGAAGACAAGAGAGAGTGAATCAAGAGCTACTGACTTCCAAGATGAAATTGCCAAACATGGAAGGTTTCTATGTTT
B5: KNU WT (dsDNA)
DNA 1: GGTAAGAGAAACATAGAAACCTTCCATGTTTGGCAATTTCATCTTGGAACTTGATTCACTCTCTCTTGTCTTCTTTGTGCATCACAAGAACAACAA
DNA 2: TTGTTGTTCTTGTGATGCACAAAGAAGACAAGAGAGAGTGAATCAAGTTCCAAGATGAAATTGCCAAACATGGAAGGTTTCTATGTTTCTCTTACC
B6: KNU -10 probe (86 bp) (dsDNA)
DNA 1: GGTAAGAGAAACATAGAAACCTTCCATGTTTGGCAATTTCATCTTGGACTCTCTCTTGTCTTCTTTGTGCATCACAAGAACAACAA
DNA 2: TTGTTGTTCTTGTGATGCACAAAGAAGACAAGAGAGAGTCCAAGATGAAATTGCCAAACATGGAAGGTTTCTATGTTTCTCTTACC
B7: KNU +10 probe (106 bp) (dsDNA)
DNA 1: GGTAAGAGAAACATAGAAACCTTCCATGTTTGGCAATTTCATCTTGGAAGTCAGTAGCTCTTGATTCACTCTCTCTTGTCTTCTTTGTGCATCACAAGAACAACAA
DNA 2: TTGTTGTTCTTGTGATGCACAAAGAAGACAAGAGAGAGTGAATCAAGAGCTACTGACTTCCAAGATGAAATTGCCAAACATGGAAGGTTTCTATGTTTCTCTTACC

Results on seven molecules are retold here after paper PMC7515736, “Genome-wide binding of [sequence]3 and AGAMOUS complexes determined by sequential DNA-affinity purification sequencing”.

The first data set deals with SEP3Δtet (SEP3 splice variant);AG (AGAMOUS) (Arabidopsis thaliana;Arabidopsis …, UniProt F4I972;P17839 1-237;1-252, del161-174|). Kind of data set: EMSA; dimer; EMSA as in the authors' ref. 20 (buffer, salt, pH, temperature not given); Cy5 probes; unpurified wheat germ TnT proteins. The settings on record: protein: ivt;ivt; tags: C-terminal 3xFLAG;C-terminal 5xMyc; copies: 1;1; label: Cy5; blunt.
Sequence of SEP3Δtet (SEP3 splice variant);AG (AGAMOUS) (P17839 other isoform, or with tags, fused parts or gaps del161-174| | mutant, chain 1 of 2): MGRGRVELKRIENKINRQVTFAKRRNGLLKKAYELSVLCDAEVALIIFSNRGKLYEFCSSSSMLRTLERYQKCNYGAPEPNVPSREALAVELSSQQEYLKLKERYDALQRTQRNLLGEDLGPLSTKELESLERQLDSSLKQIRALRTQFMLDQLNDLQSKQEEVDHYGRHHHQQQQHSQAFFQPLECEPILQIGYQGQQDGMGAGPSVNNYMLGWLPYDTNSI
Sequence of SEP3Δtet (SEP3 splice variant);AG (AGAMOUS) (P17839 whole entry, stated change not applied, chain 2 of 2, canonical isoform): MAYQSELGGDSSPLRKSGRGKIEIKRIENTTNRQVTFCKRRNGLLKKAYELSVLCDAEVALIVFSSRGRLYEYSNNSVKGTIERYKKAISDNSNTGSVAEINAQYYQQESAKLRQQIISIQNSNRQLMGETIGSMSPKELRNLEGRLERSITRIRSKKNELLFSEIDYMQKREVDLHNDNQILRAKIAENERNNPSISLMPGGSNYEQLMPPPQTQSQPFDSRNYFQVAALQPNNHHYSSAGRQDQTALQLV
Consider B1, for which the binding result is “binds”.

Regarding B2, the binding result was “binds”.

B3: the binding result is listed as “binds”.

B4: the binding result is recorded as “binds”.

Consider B5, for which the binding result is “binds”.

In the next data set the target is SEP3 (…3);AG (AGAMOUS) (Arabidopsis thaliana;Arabidopsis …, UniProt O22456;P17839 1-251;1-252, |). Kind of data set: EMSA; tetramer; EMSA as in the authors' ref. 20 (buffer, salt, pH, temperature not given); Cy5 probes; unpurified wheat germ TnT proteins. Particulars: protein: ivt;ivt; tags: C-terminal 3xFLAG;C-terminal 5xMyc; copies: 1;1; label: Cy5; blunt.
Sequence of SEP3 (…3);AG (AGAMOUS) (O22456 whole entry, chain 1 of 2): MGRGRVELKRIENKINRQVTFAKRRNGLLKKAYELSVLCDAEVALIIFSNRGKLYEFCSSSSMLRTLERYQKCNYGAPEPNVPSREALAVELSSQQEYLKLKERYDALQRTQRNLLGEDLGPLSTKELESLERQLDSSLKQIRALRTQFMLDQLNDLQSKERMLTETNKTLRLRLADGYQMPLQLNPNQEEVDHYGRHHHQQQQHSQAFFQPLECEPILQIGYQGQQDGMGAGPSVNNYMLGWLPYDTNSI
Sequence of SEP3 (…3);AG (AGAMOUS) (P17839 whole entry, chain 2 of 2): as the sequence (P17839 whole entry, stated change not applied, chain 2 of 2, canonical isoform) above
B6: the binding result was “binds”.

As to B7, the binding result is “binds”.

B1: the binding result is “binds”.

For B4, the binding result was “binds”.

With B5, the binding result is listed as “binds”.
